{"source": "the nanobody polyreactivity screen of Harvey et al. (2022)"}
{"assay": "yeast display, Sf9 membrane polyspecificity reagent, FACS + sequencing; frameworks hold sequencing errors", "summary_of_the_method": "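A nanobody's polyreactivity label depends on the gate it was sorted from. Yeast display cells were stained with 10% biotinylated, detergent-solubilized Sf9 membrane reagent for 1 hour at 4 °C, enriched on streptavidin microbeads and sorted by FACS. The low and high (top ~1%) gates were set on anti-HA fluorescence for expression and streptavidin fluorescence for reagent binding.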"}
{"sequence": "QVQLVESGAGLVQAGGSLRLSCAASGSIFDVNAMGWYRQAPGKERELVAAISQRGTRTYYADSVKGRFTISRDNAKNTVYLQMNRLKPEDTAVYYFNRGGWRKYDSWGQGTQVTVSS", "polyreactivity (PSR sort gate)": "high polyreactivity"}
{"sequence": "QVQLVESGAGLVQAGGSLRLSCAASGSIFLYNDMGWYRQAPGKERELVAAITSDGSTNYADSVKGRFTISRDNAMNTVYLQMNSLKPEDNAVYYCAADALWFYLNWYYGGTAYGYWGQCTQVTVSS", "polyreactivity (PSR sort gate)": "low polyreactivity"}
{"sequence": "QVQLVESGAGLVQAGGSLRLSCAASGSIFRVYAMGWYRQAPGKERELVAAISQSADSTYYADSVKGRFTILRDNAKYTVYLQMNSLKPEDTAVYYCAAEYPYIYRFDYWGQGTQVTVSS", "polyreactivity (PSR sort gate)": "low polyreactivity"}
{"sequence": "QVQLVESGAGLVQAGGSLRLSCAASGSIFYPYAMGWYRQAPGKERELVAAITYSGGSTYADSVKGRFTISRDNAKNTVYLQMNSLKPEDTAVYYCAARYIIHVGSWYDYWGQGTQVTVSS", "polyreactivity (PSR sort gate)": "high polyreactivity"}
{"sequence": "QVQLVESGAGLVQAGGSLRLSCAASGSTFEVYAMGWYRQAPGKVMELVADISHIGGSTYSADSVMGRFTISRDNAKNTVYLQLNSLKPEDTAVYYCNAYTVYAYDYWGQGTQVTVSS", "polyreactivity (PSR sort gate)": "low polyreactivity"}
{"sequence": "QVQLVESGAGLVQAGGSLRLSCAASGSTFWYYAMGLYRQAPGKERELVAAITRDGNTYYADSVKGRFTISRDNAMNSFYLQMNSLKREDTAVYYCAAGFYLLGKYDYWGQGTQVTVSS", "polyreactivity (PSR sort gate)": "high polyreactivity"}
{"sequence": "QVQLVESGAGLVQAGGSLRLSCAASGSTFYPYAMGWYRQAPGKERELVAAISWSGGSTYYADSVKGRFTISRDNAKNTVYLQMNSLKPEDTAVYYCAAEYYYIAYTMDYWGQGTQVTVSS", "polyreactivity (PSR sort gate)": "high polyreactivity"}
{"sequence": "QVQLVESGAGLVQAGGSLRLSCAASGSTLVYNDMGWYRQAPGKDREFVAAIRSNDGSTYYADSVKGRFTISRDNAKNTVYLQMNSLKPEDTAVYYCAKDSRNVYWDYGYWGQGTQVTVSS", "polyreactivity (PSR sort gate)": "low polyreactivity"}
{"sequence": "QVQLVESGAGLVQAGGSLRLSCAPSGRTFDYYAMGWYRQAPGKERELVADITKDGGSTYYADSVKGRFTISRDNAKNSVYLQMISLKPEDTAVYYCAADGPPQYYDPIHYDYWGQGTQVTVSS", "polyreactivity (PSR sort gate)": "low polyreactivity"}
{"sequence": "QVQLVESGAGLVQAGGSLRLSCAPSGRTFWGKVMGWYRQAPGKERELVAAITGRVGSTRYADSVKGRFTISRDNAKNTVFLQMNSLKPEDTAVYYCNADDYELYDYWGQGTQVTVSS", "polyreactivity (PSR sort gate)": "low polyreactivity"}
{"sequence": "QVQLVESGAGLVQAGGSLRLSCAPSGSILVNPIGWYRQAPGKEREFVAAISSGGSTKYADSVKGRFTISRDNAKNTVYLQMNSLKPEATAVYYCNARRRGAGGYDYWGQVTQVTVSS", "polyreactivity (PSR sort gate)": "high polyreactivity"}
{"sequence": "QVQLVESGAGLVQAGGSLRLSWAASGFTFAQNAMGWYTQAPGKERELVAAISRRGGSTYYADSVKGRFTISRDNAKNTVYLQMNSLKPEDTAVYYCDTAGTYTGGEGYWGQGTQVTVSS", "polyreactivity (PSR sort gate)": "high polyreactivity"}
{"sequence": "QVQLVESGAGLVQAGGSLRLSWAASGRIFTGNGMGWYRQAPGKEMELVAGIRNGGGRTYYADSVKGRFTISRDNAKNTVYLKMNSLKPEDTAVYYCAVRIYVRNSPGERLDKYDYWGQGTQVTVSS", "polyreactivity (PSR sort gate)": "high polyreactivity"}
{"sequence": "QVQLVESGAGLVQAGGSLRLSWAPSGITFLYYAMGLYRQAPGTEMELVATISISGGSTYYADSVKGRFTISRDNAKYTVYLQMTSLQPEESAVYYCAADDSVVTYSYDTWLVDYDYWGQATQVTVSS", "polyreactivity (PSR sort gate)": "low polyreactivity"}
{"sequence": "QVQLVESGAGLVQAGGSLRLTCAASGFIFGYNARGWYRPAPGKERELVAAIRYRGVSTYYADSVKGRFTISRDNAKNTFYLQMNSLKPVETAVYYCNARTRVKTTQSYDRNYYYWGQGTQVTVSS", "polyreactivity (PSR sort gate)": "high polyreactivity"}
{"sequence": "QVQLVESGAGLVQAGGSLSLSCAASGSIFGYYTMGWYRQAPGKERELVAAISRSGTSTFYADSVKGRFTISRDNAKNTVYLQMNSLKQEDTAVYYCNAVGSGYRSWYDYWGQGTKVTVSS", "polyreactivity (PSR sort gate)": "high polyreactivity"}
{"sequence": "QVQLVESGAGLVQAGVSLRLSCAASGRTFPYYAMGWYRQAPGKERELVARITYSGGSTYADSVKGRFPISRDNAKNTVYLQMNSLKPEDTAVYFCAAQYYAYLLDGYHRYDYWGLGTQVTVSS", "polyreactivity (PSR sort gate)": "high polyreactivity"}
{"sequence": "QVQLVESGAGLVQAGVSLRLSCAASGRTFRSNAMGWYRQAPGKERELVAAISWSGGSTYYADSVKGRFTISRDNAKNTVYLQMNSLKPEDTAVYDCAVGGSGYGRFGGGYARDYWGQGTLVTVSS", "polyreactivity (PSR sort gate)": "high polyreactivity"}
{"sequence": "QVQLVESGAGLVQARGSLRISCAASGSIFGRYAMGWYRQAPRKERELVASIYSTGGRTYYADSVKGRFTISRDNAKNTVYLQMNSLKPEDTAVYYCAAKFYEYSTAGTQWIRYYYWGQGTQVTVSS", "polyreactivity (PSR sort gate)": "high polyreactivity"}
{"sequence": "QVQLVESGAGLVQARGSLRLSCAASGSIFLSYVMGWYRQAPGKERELVAAISKRGGRTYYADSVKGRFTISRDNAKNTVYLQMNSLKPEDTAVYYCNAVTQRESEEGDYWGQGTQVTVSS", "polyreactivity (PSR sort gate)": "high polyreactivity"}
{"sequence": "QVQLVESGAGLVQARGSLRLSCAASGYTFLGYAMGWYRQAPGKERELVAAINRSGSSTYYADSVKGRFTISRDNAKNTVYLQMNSLKPEDTAVYYCNARSGNRYGPRYDYWGQGTQVTVSS", "polyreactivity (PSR sort gate)": "high polyreactivity"}
{"sequence": "QVQLVESGAGVGQAGGSLRLSCAASGSIFTPYAMGWYRPAPGKERELVAGITSGGNTNYADSVKGRFTISRDNAKNTVYLQMNSLKPEDTAVYYCAARYIYYYAYGYNYWGQGTKVTVSS", "polyreactivity (PSR sort gate)": "high polyreactivity"}
{"sequence": "QVQLVESGAGVVQAGGSLRLSCAASGFTLHSYAMGWYRQAPGKERELVAAITRSGGGTYYADSVKGRFTISRDNAKKTVYLQMNSLKPEDTAVYYCAARFGGQYQHDYWGQGTQVTVSS", "polyreactivity (PSR sort gate)": "high polyreactivity"}
{"sequence": "QVQLVESGARLVQAGGSLRLSCAPSGSIFAYNAMGWYRQAPGKERELVAAITKSGGSTYYADSVKGRFTISRDHAKNTVYLQMNSLKPEDTAVDYCNVVVPHSISSHGDYWGQGTQVTVSS", "polyreactivity (PSR sort gate)": "low polyreactivity"}
{"sequence": "QVQLVESGEGLVQAGGRLRLSCAPSGSTFMTYAMGWYRQAPGKERELVAAIRWSGGGTYYADSVKGRFTISRDNAKNTVYLQMNSLKPEDTAVYYGAADHFNYTPGRDYWGQGTQVTVSS", "polyreactivity (PSR sort gate)": "low polyreactivity"}
{"sequence": "QVQLVESGEGLVQAGGSLSLSCAASGRIFYAYVMGWYRQAPGKERELVAAIDRRSTYYADSVKRRFTISRDNAKNTVFFQMNSLKPEDTAVYYCAARSTYSYYIRGYWGLGTQVTVSS", "polyreactivity (PSR sort gate)": "high polyreactivity"}
{"sequence": "QVQLVESGGALLQAGGSLRLSCAASGFIFRYYAMGWYRQAPGKERELVAAISESGASTYYADSVKGRFTISRDNAKNSVYLQMNSLKPEVTAVYYCAAKPRNSGPYYFYDLNYWGQGTQVTVSS", "polyreactivity (PSR sort gate)": "high polyreactivity"}
{"sequence": "QVQLVESGGALVQAGASLRLSCAASGRTFPLYAMGWYRQAPGKEMELVAAISARGSSTYYADSVKGRFTISRDNAKNTVYLQMNSLKAEDNAVYYCAAKRSYPYGSGYWGQGSQVTVSS", "polyreactivity (PSR sort gate)": "high polyreactivity"}
{"sequence": "QVQLVESGGALVQAGCSLRLSCAASGRTFGRNTMGWYRQAPGKERELVAGISRSAGRTYYADSVKGRFTISRDNAKNNVYLQMNSLKAEDTAVYYCAARYQGNYRTDKYDYWGQGTQVTVSS", "polyreactivity (PSR sort gate)": "high polyreactivity"}
{"sequence": "QVQLVESGGALVQAGGSHRLSCAASGSTFATYAMGWYRQAPGNEREFVAVITRGGRTYYADSVKGRFTISRDNAKITVYLQMNSLKPEDTAVYYCAAGSGNFVTRYRYGYWGQGTQVTVSS", "polyreactivity (PSR sort gate)": "high polyreactivity"}
{"sequence": "QVQLVESGGALVQAGGSIRLSCAASGSTFAYYAMGWYRQATGKERELVAAINWRTYYADSVKGRFTISRDNAKNTVYLQMNSLKPEDSAVYYCAAGYYRNKFYYWGQGTQVTVSS", "polyreactivity (PSR sort gate)": "high polyreactivity"}
{"sequence": "QVQLVESGGALVQAGGSLRISCAASGFTFHKNAMGWYRQAPGKERELVAAITYRGGSTYYADSVKGRFTISRDNAKNTVYLQMNSLKPEDTSVYYCAAELRPYITYDGPRKKFYFWGQGTQVTVSS", "polyreactivity (PSR sort gate)": "high polyreactivity"}
{"sequence": "QVQLVESGGALVQAGGSLRISCAASGFTLQRNTMGWYRQAPGKDREFVAAISVRGGSTYYADSVKGRFTNSRDTAKNTVYLQMNSLKPEDTAVYYCAAVGRPSQYSYPYGYWGQGTQVTVSS", "polyreactivity (PSR sort gate)": "high polyreactivity"}
{"sequence": "QVQLVESGGALVQAGGSLRLSCAASGFIFRYYAMGWYRQAPWKERELVATITGRGGSTYYADSVKGRFTISRDNAMNTVYLQMNSLKPEDTAVYYCAKRGYGRYYAYDYWGQGTQVTVSS", "polyreactivity (PSR sort gate)": "high polyreactivity"}
{"sequence": "QVQLVESGGALVQAGGSLRLSCAASGFIICYYAMGSYRQAPGKDRELVAAITSGTSTSYADSVKGRFTISRDNAKNTVYLQMNSLKQEDTAVYYCGADVVRSNFYGTFLYDYDYWGQGTQVTVSS", "polyreactivity (PSR sort gate)": "low polyreactivity"}
{"sequence": "QVQLVESGGALVQAGGSLRLSCAASGFTFFRNAMGWYRQAPGKERELVAAISGSGGSTYYADSVKGRFTISRDNAKNTVYLQMNSLKPEDTAVYYCATYSYPAKVREAYNYWGQGTQVTVSS", "polyreactivity (PSR sort gate)": "low polyreactivity"}
{"sequence": "QVQLVESGGALVQAGGSLRLSCAASGFTFNVYAMGWYRPAPGKERELVAAITSSGGSTYYADSVKGRFTISRDNAKNTVYLQMNSLIPDDTAVYYCNVVRDWLLYRGSYIVKFDYWGQGTQVTVSS", "polyreactivity (PSR sort gate)": "high polyreactivity"}
{"sequence": "QVQLVESGGALVQAGGSLRLSCAASGFTFRSYVMGWYRQAPGKERELVAAISGSGASTYYADSVKGRFTLSRDNAKNTVYLQMNSLKPEDTAVYYCAATSPYKYWYRYNYWGHGTQVTVSS", "polyreactivity (PSR sort gate)": "high polyreactivity"}
{"sequence": "QVQLVESGGALVQAGGSLRLSCAASGFTFTINDMGWYRQAPGKERELVATINDSAGSTYYADSVKGRFTISRDNAKNTVYLQMNSQKPDATAVYYCNAYKATRWFEYVYWGQGTQVTVSS", "polyreactivity (PSR sort gate)": "low polyreactivity"}
{"sequence": "QVQLVESGGALVQAGGSLRLSCAASGIIFWLYDMGWSRQAPGKERELVAVMTWSGDSTYADSVKGRFTISRDNAKNTVYLQMNSLKPEDNAVYYCAAREYYRKPYDHWGQGTQVTVSS", "polyreactivity (PSR sort gate)": "high polyreactivity"}
{"sequence": "QVQLVESGGALVQAGGSLRLSCAASGIVFKRYAMGWYRQAPGKEREFVATISYTGGRTYYADSVKGRFTISRDNAKNTVYLQMNSLKPEDTAVYYCATLYRSSKHQPLDYWGQGTQVNVSS", "polyreactivity (PSR sort gate)": "high polyreactivity"}
{"sequence": "QVQLVESGGALVQAGGSLRLSCAASGRIFRSYVMGWYRQAPGKERELVATITGGGRTNYADSVKGRFTISRDNAKNTVYLQMTSLKPEDTAVYYCAGVYRWWPFHAFDYWGQGTQVTVSS", "polyreactivity (PSR sort gate)": "high polyreactivity"}
{"sequence": "QVQLVESGGALVQAGGSLRLSCAASGSIFGEYTMGWYRQAPGKEWELVAAIRSGGDTYYADSVKGRFTLSRDKAKNTVYLQMNSLKPEDTAVYYCNAYWVRHYIMDYWGQGTQVTVSS", "polyreactivity (PSR sort gate)": "low polyreactivity"}
